Assay results: article PMC4482198

Target: Angiotensin-II (Rattus norvegicus)
Assay: radioligand

B1: Angiotensin II type-1 receptor (AT1R), P25095 (protein)
chain: MALNSSAEDGIKRIQDDCPKAGRHSYIFVMIPTLYSIIFVVGIFGNSLVVIVIYFYMKLKTVASVFLLNLALADLCFLLTLPLWAVYTAMEYRWPFGNHLCKIASASVSFNLYASVFLLTCLSIDRYLAIVHPMKSRLRRTMLVAKVTCIIIWLMAGLASLPAVIHRNVYFIENTNITVCAFHYESRNSTLPIGLGLTKNILGFLFPFLIILTSYTLIWKALKKAYEIQKNKPRNDDIFRIIMAIVLFFFFSWVPHQIFTFLDVLIQLGVIHDCKISDIVDTAMPITICIAYFNNCLNPLFYGFLGKKFKKYFLQLLKYIPPKAKSHSSLSTKMSTLSYRPSDNMSSSAKKPASCFEVE
Kd: 2.8 nM
